# Assay results published in US20180155451A1 (published 2018).
# T1: FcγRIIa R (human, UniProt P12318 34-217)
# T1 construct: extracellular domain; also called FcgRIIa R type; 2aR
# T1 sequence (looked up): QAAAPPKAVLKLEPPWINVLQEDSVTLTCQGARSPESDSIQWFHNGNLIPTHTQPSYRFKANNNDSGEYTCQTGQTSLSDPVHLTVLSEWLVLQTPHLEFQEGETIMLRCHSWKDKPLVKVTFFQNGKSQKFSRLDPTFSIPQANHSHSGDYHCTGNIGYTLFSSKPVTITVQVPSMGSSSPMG
# T2: FcγRIIb (human, UniProt P31994 43-217)
# T2 construct: extracellular domain; also called 2b; FcgRIIb
# T2 sequence (looked up): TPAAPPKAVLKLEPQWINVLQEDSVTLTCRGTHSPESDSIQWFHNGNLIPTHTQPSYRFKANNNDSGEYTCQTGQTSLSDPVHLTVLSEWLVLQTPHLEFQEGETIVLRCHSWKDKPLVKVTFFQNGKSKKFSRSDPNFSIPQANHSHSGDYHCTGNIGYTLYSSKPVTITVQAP
# Biological target: T1, FcγRIIa R
# Test: SPR Biacore; vs GpH7-B3/GpL16-k0 =100
row,Ho/Con_2aR,Binder
1,122 % of control,"GpH7-B3 variant S239_10E/GpL16-k0 (antibody, human IgG1, kappa, also called Ho Ab S239_10E) heavy: not shown light: DIVMTQSPLSLPVTPGEPASISCQASESLVHSNRNTYLHWYLQKPGQSPQLLIYKVSNRFSGVPDRFSGSGSGTDFTLKISRVEAEDVGVYYCSQNTHVPPTFGQGTKVEIERTVAAPSVFIFPPSDEQLKSGTASVVCLLNNFYPREAKVQWKVDNALQSGNSQESVTEQDSKDSTYSLSSTLTLSKADYEKHKVYACEVTHQGLSSPVTKSFNRGEC"
2,102 % of control,"GpH7-B3 variant P331_20W/GpL16-k0 (antibody, human IgG1, kappa, also called Ho Ab P331_20W) heavy: not shown light: DIVMTQSPLSLPVTPGEPASISCQASESLVHSNRNTYLHWYLQKPGQSPQLLIYKVSNRFSGVPDRFSGSGSGTDFTLKISRVEAEDVGVYYCSQNTHVPPTFGQGTKVEIERTVAAPSVFIFPPSDEQLKSGTASVVCLLNNFYPREAKVQWKVDNALQSGNSQESVTEQDSKDSTYSLSSTLTLSKADYEKHKVYACEVTHQGLSSPVTKSFNRGEC"
3,106 % of control,"GpH7-B3 variant S239_08L/GpL16-k0 (antibody, human IgG1, kappa, also called Ho Ab S239_08L) heavy: not shown light: DIVMTQSPLSLPVTPGEPASISCQASESLVHSNRNTYLHWYLQKPGQSPQLLIYKVSNRFSGVPDRFSGSGSGTDFTLKISRVEAEDVGVYYCSQNTHVPPTFGQGTKVEIERTVAAPSVFIFPPSDEQLKSGTASVVCLLNNFYPREAKVQWKVDNALQSGNSQESVTEQDSKDSTYSLSSTLTLSKADYEKHKVYACEVTHQGLSSPVTKSFNRGEC"
4,105 % of control,"GpH7-B3 variant P331_15Y/GpL16-k0 (antibody, human IgG1, kappa, also called Ho Ab P331_15Y) heavy: not shown light: DIVMTQSPLSLPVTPGEPASISCQASESLVHSNRNTYLHWYLQKPGQSPQLLIYKVSNRFSGVPDRFSGSGSGTDFTLKISRVEAEDVGVYYCSQNTHVPPTFGQGTKVEIERTVAAPSVFIFPPSDEQLKSGTASVVCLLNNFYPREAKVQWKVDNALQSGNSQESVTEQDSKDSTYSLSSTLTLSKADYEKHKVYACEVTHQGLSSPVTKSFNRGEC"
5,100 % of control,"GpH7-B3 variant P331_16H/GpL16-k0 (antibody, human IgG1, kappa, also called Ho Ab P331_16H) heavy: not shown light: DIVMTQSPLSLPVTPGEPASISCQASESLVHSNRNTYLHWYLQKPGQSPQLLIYKVSNRFSGVPDRFSGSGSGTDFTLKISRVEAEDVGVYYCSQNTHVPPTFGQGTKVEIERTVAAPSVFIFPPSDEQLKSGTASVVCLLNNFYPREAKVQWKVDNALQSGNSQESVTEQDSKDSTYSLSSTLTLSKADYEKHKVYACEVTHQGLSSPVTKSFNRGEC"
6,115 % of control,"GpH7-B3 variant S267_03V/GpL16-k0 (antibody, human IgG1, kappa, also called Ho Ab S267_03V) heavy: not shown light: DIVMTQSPLSLPVTPGEPASISCQASESLVHSNRNTYLHWYLQKPGQSPQLLIYKVSNRFSGVPDRFSGSGSGTDFTLKISRVEAEDVGVYYCSQNTHVPPTFGQGTKVEIERTVAAPSVFIFPPSDEQLKSGTASVVCLLNNFYPREAKVQWKVDNALQSGNSQESVTEQDSKDSTYSLSSTLTLSKADYEKHKVYACEVTHQGLSSPVTKSFNRGEC"
7,103 % of control,"GpH7-B3 variant S239_18N/GpL16-k0 (antibody, human IgG1, kappa, also called Ho Ab S239_18N) heavy: not shown light: DIVMTQSPLSLPVTPGEPASISCQASESLVHSNRNTYLHWYLQKPGQSPQLLIYKVSNRFSGVPDRFSGSGSGTDFTLKISRVEAEDVGVYYCSQNTHVPPTFGQGTKVEIERTVAAPSVFIFPPSDEQLKSGTASVVCLLNNFYPREAKVQWKVDNALQSGNSQESVTEQDSKDSTYSLSSTLTLSKADYEKHKVYACEVTHQGLSSPVTKSFNRGEC"

# Biological target: T2, FcγRIIb
# Test: SPR (Biacore), binding relative to GpH7-B3/GpL16-k0 = 100
# Method: Analysis of interaction between objective antibody and the FcγR was carried out using Biacore T100 (GE Healthcare). HBS-EP+ (GE Healthcare) was used as the running buffer, and the measurement temperature was set to 25° C. Chips produced by immobilizing the antigen peptide by the amine coupling method to a Series S Sencor Chip CM5 (GE Healthcare), or alternatively, chips produced by allowing preliminarily biotinylated antigen peptides to interact with and immobilize onto a Series S Sensor Chip SA (certified) (GE Healthcare) were used. Antibodies of interest were captured onto an antigen peptide-immobilized chip, and allowed to interact to each FcγR diluted with running buffer. To regenerate and repeatedly use the chip, the antibodies captured on the chip were washed off by reacting 10 mM glycine-HCl, pH 1.5.
# The FcγR-binding activity of each antibody was assessed primarily using as an indicator the FcγR-binding activity and dissociation constant for FcγR.
row,Binder,Ho/Con_2b
1,"GpH7-B3 variant G237_02A/GpL16-k0 (antibody, human IgG1, kappa, also called Ho Ab G237_02A) heavy: not shown light: DIVMTQSPLSLPVTPGEPASISCQASESLVHSNRNTYLHWYLQKPGQSPQLLIYKVSNRFSGVPDRFSGSGSGTDFTLKISRVEAEDVGVYYCSQNTHVPPTFGQGTKVEIERTVAAPSVFIFPPSDEQLKSGTASVVCLLNNFYPREAKVQWKVDNALQSGNSQESVTEQDSKDSTYSLSSTLTLSKADYEKHKVYACEVTHQGLSSPVTKSFNRGEC",47.8 % of control
2,"GpH7-B3 variant A327_18N/GpL16-k0 (antibody, human IgG1, kappa, also called Ho Ab A327_18N) heavy: not shown light: DIVMTQSPLSLPVTPGEPASISCQASESLVHSNRNTYLHWYLQKPGQSPQLLIYKVSNRFSGVPDRFSGSGSGTDFTLKISRVEAEDVGVYYCSQNTHVPPTFGQGTKVEIERTVAAPSVFIFPPSDEQLKSGTASVVCLLNNFYPREAKVQWKVDNALQSGNSQESVTEQDSKDSTYSLSSTLTLSKADYEKHKVYACEVTHQGLSSPVTKSFNRGEC",101 % of control
3,"GpH7-B3 variant G237_10E/GpL16-k0 (antibody, human IgG1, kappa, also called Ho Ab G237_10E) heavy: not shown light: DIVMTQSPLSLPVTPGEPASISCQASESLVHSNRNTYLHWYLQKPGQSPQLLIYKVSNRFSGVPDRFSGSGSGTDFTLKISRVEAEDVGVYYCSQNTHVPPTFGQGTKVEIERTVAAPSVFIFPPSDEQLKSGTASVVCLLNNFYPREAKVQWKVDNALQSGNSQESVTEQDSKDSTYSLSSTLTLSKADYEKHKVYACEVTHQGLSSPVTKSFNRGEC",17.8 % of control
4,"GpH7-B3 variant A330_01G/GpL16-k0 (antibody, human IgG1, kappa, also called Ho Ab A330_01G) heavy: not shown light: DIVMTQSPLSLPVTPGEPASISCQASESLVHSNRNTYLHWYLQKPGQSPQLLIYKVSNRFSGVPDRFSGSGSGTDFTLKISRVEAEDVGVYYCSQNTHVPPTFGQGTKVEIERTVAAPSVFIFPPSDEQLKSGTASVVCLLNNFYPREAKVQWKVDNALQSGNSQESVTEQDSKDSTYSLSSTLTLSKADYEKHKVYACEVTHQGLSSPVTKSFNRGEC",102 % of control
5,"GpH7-B3 variant A327_07I/GpL16-k0 (antibody, human IgG1, kappa, also called Ho Ab A327_07I) heavy: not shown light: DIVMTQSPLSLPVTPGEPASISCQASESLVHSNRNTYLHWYLQKPGQSPQLLIYKVSNRFSGVPDRFSGSGSGTDFTLKISRVEAEDVGVYYCSQNTHVPPTFGQGTKVEIERTVAAPSVFIFPPSDEQLKSGTASVVCLLNNFYPREAKVQWKVDNALQSGNSQESVTEQDSKDSTYSLSSTLTLSKADYEKHKVYACEVTHQGLSSPVTKSFNRGEC",37.6 % of control
6,"GpH7-B3 variant G237_09D/GpL16-k0 (antibody, human IgG1, kappa, also called Ho Ab G237_09D) heavy: not shown light: DIVMTQSPLSLPVTPGEPASISCQASESLVHSNRNTYLHWYLQKPGQSPQLLIYKVSNRFSGVPDRFSGSGSGTDFTLKISRVEAEDVGVYYCSQNTHVPPTFGQGTKVEIERTVAAPSVFIFPPSDEQLKSGTASVVCLLNNFYPREAKVQWKVDNALQSGNSQESVTEQDSKDSTYSLSSTLTLSKADYEKHKVYACEVTHQGLSSPVTKSFNRGEC",92.9 % of control
7,"GpH7-B3 variant A330_05P/GpL16-k0 (antibody, human IgG1, kappa, also called Ho Ab A330_05P) heavy: not shown light: DIVMTQSPLSLPVTPGEPASISCQASESLVHSNRNTYLHWYLQKPGQSPQLLIYKVSNRFSGVPDRFSGSGSGTDFTLKISRVEAEDVGVYYCSQNTHVPPTFGQGTKVEIERTVAAPSVFIFPPSDEQLKSGTASVVCLLNNFYPREAKVQWKVDNALQSGNSQESVTEQDSKDSTYSLSSTLTLSKADYEKHKVYACEVTHQGLSSPVTKSFNRGEC",35.3 % of control
8,"GpH7-B3 variant G237_08L/GpL16-k0 (antibody, human IgG1, kappa, also called Ho Ab G237_08L) heavy: not shown light: DIVMTQSPLSLPVTPGEPASISCQASESLVHSNRNTYLHWYLQKPGQSPQLLIYKVSNRFSGVPDRFSGSGSGTDFTLKISRVEAEDVGVYYCSQNTHVPPTFGQGTKVEIERTVAAPSVFIFPPSDEQLKSGTASVVCLLNNFYPREAKVQWKVDNALQSGNSQESVTEQDSKDSTYSLSSTLTLSKADYEKHKVYACEVTHQGLSSPVTKSFNRGEC",49.4 % of control
9,"GpH7-B3 variant G237_06M/GpL16-k0 (antibody, human IgG1, kappa, also called Ho Ab G237_06M) heavy: not shown light: DIVMTQSPLSLPVTPGEPASISCQASESLVHSNRNTYLHWYLQKPGQSPQLLIYKVSNRFSGVPDRFSGSGSGTDFTLKISRVEAEDVGVYYCSQNTHVPPTFGQGTKVEIERTVAAPSVFIFPPSDEQLKSGTASVVCLLNNFYPREAKVQWKVDNALQSGNSQESVTEQDSKDSTYSLSSTLTLSKADYEKHKVYACEVTHQGLSSPVTKSFNRGEC",35.3 % of control
10,"GpH7-B3 variant G237_04F/GpL16-k0 (antibody, human IgG1, kappa, also called Ho Ab G237_04F) heavy: not shown light: DIVMTQSPLSLPVTPGEPASISCQASESLVHSNRNTYLHWYLQKPGQSPQLLIYKVSNRFSGVPDRFSGSGSGTDFTLKISRVEAEDVGVYYCSQNTHVPPTFGQGTKVEIERTVAAPSVFIFPPSDEQLKSGTASVVCLLNNFYPREAKVQWKVDNALQSGNSQESVTEQDSKDSTYSLSSTLTLSKADYEKHKVYACEVTHQGLSSPVTKSFNRGEC",140 % of control

# The remaining lines, values ahead:
row,Ho/Con_2b,Binder
1,25.7 % of control,"GpH7-B3 variant G237_13S/GpL16-k0 (antibody, human IgG1, kappa, also called Ho Ab G237_13S) heavy: not shown light: DIVMTQSPLSLPVTPGEPASISCQASESLVHSNRNTYLHWYLQKPGQSPQLLIYKVSNRFSGVPDRFSGSGSGTDFTLKISRVEAEDVGVYYCSQNTHVPPTFGQGTKVEIERTVAAPSVFIFPPSDEQLKSGTASVVCLLNNFYPREAKVQWKVDNALQSGNSQESVTEQDSKDSTYSLSSTLTLSKADYEKHKVYACEVTHQGLSSPVTKSFNRGEC"
2,83.1 % of control,"GpH7-B3 variant G237_15Y/GpL16-k0 (antibody, human IgG1, kappa, also called Ho Ab G237_15Y) heavy: not shown light: DIVMTQSPLSLPVTPGEPASISCQASESLVHSNRNTYLHWYLQKPGQSPQLLIYKVSNRFSGVPDRFSGSGSGTDFTLKISRVEAEDVGVYYCSQNTHVPPTFGQGTKVEIERTVAAPSVFIFPPSDEQLKSGTASVVCLLNNFYPREAKVQWKVDNALQSGNSQESVTEQDSKDSTYSLSSTLTLSKADYEKHKVYACEVTHQGLSSPVTKSFNRGEC"
3,63.9 % of control,"GpH7-B3 variant G237_18N/GpL16-k0 (antibody, human IgG1, kappa, also called Ho Ab G237_18N) heavy: not shown light: DIVMTQSPLSLPVTPGEPASISCQASESLVHSNRNTYLHWYLQKPGQSPQLLIYKVSNRFSGVPDRFSGSGSGTDFTLKISRVEAEDVGVYYCSQNTHVPPTFGQGTKVEIERTVAAPSVFIFPPSDEQLKSGTASVVCLLNNFYPREAKVQWKVDNALQSGNSQESVTEQDSKDSTYSLSSTLTLSKADYEKHKVYACEVTHQGLSSPVTKSFNRGEC"
